Consider two molecules from PMC5382158 (Frontiers in Cellular and Infection Microbiology, 2017).

Holding throughout (experiment): two-hybrid
The target in assay [1] is NarI-T18 (M. tuberculosis).
For assay [2], the target named is T1, NarK2-T18 (M. tuberculosis, UniProt P9WJY7 1-395).
T1 sequence: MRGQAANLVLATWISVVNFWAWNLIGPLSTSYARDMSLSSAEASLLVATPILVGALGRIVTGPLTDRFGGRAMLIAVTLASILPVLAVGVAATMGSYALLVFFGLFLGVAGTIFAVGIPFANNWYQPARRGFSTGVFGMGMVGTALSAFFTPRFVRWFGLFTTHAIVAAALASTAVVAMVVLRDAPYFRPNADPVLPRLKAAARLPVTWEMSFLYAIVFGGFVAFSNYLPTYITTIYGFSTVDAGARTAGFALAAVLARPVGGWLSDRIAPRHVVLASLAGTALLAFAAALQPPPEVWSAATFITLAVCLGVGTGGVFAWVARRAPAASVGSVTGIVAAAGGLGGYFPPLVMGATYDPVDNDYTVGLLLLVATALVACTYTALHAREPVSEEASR
The conditions noted are these: partners not purified.

The target in assay [3] is T2, Rv2617c-T18 (M. tuberculosis, UniProt I6XER9 1-146).
T2 sequence: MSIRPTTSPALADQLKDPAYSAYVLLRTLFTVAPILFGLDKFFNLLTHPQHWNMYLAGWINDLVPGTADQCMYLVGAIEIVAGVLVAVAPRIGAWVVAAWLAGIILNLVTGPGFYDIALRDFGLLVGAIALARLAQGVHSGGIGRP
To be noted: partners not purified.

As to KdpF-T25 (peptide), in assay [1], the β-galactosidase activity came to 720 Miller units.

In the case of MTTVDNIVGLVIAVALMAFLFAALLFPEKF [KdpF-T25], the β-galactosidase activity in assay [2] was found to be 868 Miller units; in assay [3], 1870 Miller units.
